Data as given in article PMC8034850, “A cell-based screening method using an intracellular antibody for discovering small molecules targeting the translocation protein LMO2” (Science Advances, 2021).
Numbering of substitutions follows the chain as printed. Names may count otherwise.

Assays:
Format in all cases: cell-based
[1] = biological target: T1, LMO2-iDAb LMO2dm3 interaction (Homo sapiens, UniProt P25791); experiment: BRET competition / dose-response assay on LMO2-iDAb LMO2dm3; conditions: HEK-293T, HEK293T, Fig. 4C
T1 construct: LMO2 cDNA was cloned into the pEF-RLuc8-MCS and pEF-MCS-RLuc8 plasmids; expressed in transfected cells; host or cells: HEK293T
T1 sequence (P25791 1-158): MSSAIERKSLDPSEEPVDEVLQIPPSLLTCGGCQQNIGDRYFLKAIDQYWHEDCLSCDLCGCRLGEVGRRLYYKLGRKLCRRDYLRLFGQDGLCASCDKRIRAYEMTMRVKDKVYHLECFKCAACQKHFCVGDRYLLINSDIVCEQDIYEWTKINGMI
Procedure: (§1) For all BRET experiments (titration curves and competition assays), 650,000 HEK293T were seeded in each well of six-well plates. After 24 hours at 37°C, cells were transfected with a total of 1.6 μg of DNA mix, containing the donor + acceptor ± competitor plasmids, using Lipofectamine 2000 transfection reagent (Thermo Fisher Scientific). For the BRET donor saturation assays, cells were transfected with 0.05 μg of donor (LMO2) and with an increased amount of acceptor plasmid (0.025, 0.05, 0.1, 0.25, 0.5, 0.75, and/or 1 μg of DNA) equalized to a total amount of 1.6 μg of DNA with an empty vector pEF-cyto-myc. […] Cells were detached 24 hours later, washed with phosphate-buffered saline (PBS), and seeded in a white 96-well plate (clear bottom, PerkinElmer, catalog no. 6005181) in Opti-MEM without phenol red medium complemented with 4% FBS, and cells were incubated for an additional 20 to 24 hours at 37°C before the BRET assay reading. […]
(§2) BRET2 signal was determined immediately after injection of coelenterazine 400a substrate (10 μM final concentration) to cells (Cayman Chemicals) using a CLARIOstar instrument (BMG Labtech) with a luminescence module. Total GFP^2 fluorescence was detected with excitation and emission peaks set at 405 and 515 nm, respectively. Total RLuc8 luminescence was measured with the luminescence 400- to 700-nm wavelength filter. […]

LMO2-LDB1 interaction = biological target: T2, LMO2-LDB1 interaction (Homo sapiens, UniProt P25791); experiment: BRET assay on LMO2-LDB1; conditions: BRET competition, fig. S7E
T2 construct: LMO2 cDNA was cloned into the pEF-RLuc8-MCS and pEF-MCS-RLuc8 plasmids; expressed in transfected cells; host or cells: HEK293T
T2 sequence (P25791 1-158): T1 sequence (P25791 1-158)
Procedure: as §1, §2

[2] = biological target: T3, LMO2-TAL1 + E47 interaction (Homo sapiens, UniProt P25791); experiment: BRET assay on LMO2-TAL1 + E47; conditions: BRET competition, fig. S7D
T3 construct: LMO2 cDNA was cloned into the pEF-RLuc8-MCS and pEF-MCS-RLuc8 plasmids; expressed in transfected cells; host or cells: HEK293T
T3 sequence (P25791 1-158): T1 sequence (P25791 1-158)
Procedure: as §1, §2

LMO2 = biological target: T4, LMO2 (Homo sapiens, UniProt P25791); experiment: Single-dose BRET competition of LMO2-RLuc8 and GFP2-iDAb LMO2dmx by unmutated iDAb LMO2; conditions: lowest dose of competitor 0.1 μg, label = GFP2-iDAb acceptor, Fig. 2D
T4 construct: LMO2 cDNA was cloned into the pEF-RLuc8-MCS and pEF-MCS-RLuc8 plasmids; expressed in transfected cells; host or cells: HEK293T
T4 sequence (P25791 1-158): T1 sequence (P25791 1-158)

Molecule: COc1ccc(CN2CCN(c3nc(C(=O)Nc4ccc(-n5cccc5)cc4)co3)CC2)cc1 [Abd-L19]
- inhibition at 20 µM [1]: 45%

B1: iDAb LMO2: intracellular VH single domain antibody binding to LMO2 (antibody, V domains shown)
VH: EVQLLESGGGLVQPGGSLRLSCAASGFSFSHSPMNWVRQAPGKGLEWVSYISYNSSSIYYADSVKGRFTISRDNSKNTLYLQMNSLRAEDTAVYYCARGLTESLELTADWFDYWGQGTLVTVSS
- effect of coexpressed nontagged iDAb on LMO2-LDB1 BRET signal (LMO2-LDB1 interaction): inhibited BRET signal
- effect of coexpressed nontagged iDAb on LMO2-TAL1 + E47 BRET signal [2]: inhibited BRET signal

B2: iDAb LMO2dm3: iDAb LMO2 mutant S28G, H31G, S55A, E102A, T107A, chosen for the screen (antibody, V domains shown)
VH: B1 VH with S28G, H31G, S55A, E102A, T107A
- percentage inhibition by iDAb LMO2 compared to iDAb Ctl of the interaction of the labelled acceptor iDAb with LMO2 (LMO2): ~ 90%
